In the supplement of paper PMC9732359:
± gives the uncertainty stated by the source.

Experiment: protein stability index of a GFP-peptide fusion (yeast GPS) (PSI 1-4); higher = more stable; sorted into four equal gates, so the index is relative within each strain
Procedure, shortened: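 Tiled yeast protein peptides of 17 residues were each joined downstream of GFP, on plasmids that also express Cherry. The pooled library was maintained in yeast, and mid-log cultures in leucine-free medium were sorted into four equal gates on the GFP/Cherry ratio. Plasmids from every gate were amplified by PCR and sequenced on Illumina, with barcodes linking reads to strains. The protein stability index of a peptide is its gate-number-weighted read frequency summed over the gates.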

Row | Sequence | protein stability index (doa10∆) | protein stability index (pdr5∆) | protein stability index (san1∆) | protein stability index (ubr1∆)
1 | FSFGTSQPNNTPSFSFG [YLR335W/NUP2] | 2.81 ± 0.048 | 2.73 ± 0.047 | 2.88 ± 0.053 | 2.59 ± 0.037
2 | FSGKGVHKLRHYLVNLT [GRR1] | 1.28 ± 0.037 | 1.44 ± 0.034 | 1.39 ± 0.07 | 1.45 ± 0.029
3 | FSKILPAALDGLMKSYK [ESC2] | 2.71 ± 0.059 | 2.28 ± 0.069 | 2.73 ± 0.051 | 2.54 ± 0.056
4 | FSMLQMAFEASAAAAGN [BRR2] |  | 2.26 ± 0.25 | 1.76 ± 0.21 | 
5 | FSNKYLELCKLASNNLE [RRI2] | 1.95 ± 0.054 | 2.1 ± 0.039 | 2.02 ± 0.068 | 2.02 ± 0.043
6 | FSNVNELQEKNVELLNC [YIL149C/MLP2] | 3.09 ± 0.082 | 3.29 ± 0.13 | 3.06 ± 0.083 | 3.1 ± 0.075
7 | FSPVISQSLTSILVIVQ [SWI1] | 1.43 ± 0.048 | 1.66 ± 0.05 | 1.33 ± 0.076 | 1.33 ± 0.04
8 | FSSKNEWRKSAIANTLL [PRP8] | 2.99 ± 0.056 | 2.79 ± 0.045 | 2.94 ± 0.053 | 2.72 ± 0.045
9 | FTFGQSTSENKISEGSA [YOR098C/NUP1] | 3.71 ± 0.16 | 3.35 ± 0.084 | 2.86 ± 0.12 | 3.37 ± 0.11
10 | FTGQGSQEQGMGMDLYK [FAS1] | 3.28 ± 0.12 | 3.4 ± 0.093 | 3.41 ± 0.1 | 3.4 ± 0.088
11 | FTLTYDIIETFSSKRKT [YMR129W/POM152] | 1.88 ± 0.05 | 2.07 ± 0.064 | 1.69 ± 0.077 | 2.33 ± 0.056
12 | FTNIISRNKALELNLSV [YJL039C/NUP192] | 2.64 ± 0.11 | 2.78 ± 0.087 | 2.62 ± 0.12 | 2.69 ± 0.088
13 | FTQLKKNIPKTRYNRDY [SNU114] | 2.48 ± 0.052 | 2.59 ± 0.056 | 2.98 ± 0.04 | 2.79 ± 0.051
14 | FTQQELQKQMGIGSLTD [RPC34] | 2.22 ± 0.088 | 2.39 ± 0.11 | 2.33 ± 0.17 | 2.48 ± 0.11
15 | FTSHTRLRQGAAKLRTL [RPL2A] | 2.03 ± 0.059 | 1.68 ± 0.044 | 2.1 ± 0.073 | 1.95 ± 0.039
16 | FTTNKSKDVSRLLSALG [SRP21] | 3.03 ± 0.2 | 2.41 ± 0.28 |  | 2.8 ± 0.081
17 | FVIPILIKMSRSPPRPP [PRP28] | 2.04 ± 0.069 | 1.93 ± 0.065 | 2.01 ± 0.088 | 2.14 ± 0.073
18 | FVTRKSRKRAKKMTKKA [PRP8] | 3.02 ± 0.075 | 2.91 ± 0.12 | 2.61 ± 0.11 | 2.95 ± 0.12
19 | FVVGVDNVSSQQMHEVR [RPP0] | 2.1 ± 0.078 | 2.74 ± 0.1 | 3.07 ± 0.15 | 2.74 ± 0.08
20 | FVVKLDTVDRLIIKYQK [GAL11] | 2.25 ± 0.042 | 2.3 ± 0.048 | 2.54 ± 0.054 | 2 ± 0.039
21 | FWFDKLVTKILPLKKNE [YCG1] | 2.83 ± 0.21 | 3 ± 0.14 | 3.1 ± 0.15 | 2.43 ± 0.24
22 | FWSLHSSTYYNLDYLFE [NUT1] | 2.44 ± 0.053 | 2.05 ± 0.037 | 2 ± 0.063 | 1.95 ± 0.029
23 | FYERLDKSTTQLRKEIQ [MED11] | 2.61 ± 0.063 | 2.82 ± 0.081 | 2.47 ± 0.064 | 2.9 ± 0.072
24 | GAEDPKVLINDQLSTIS [SWI1] | 3.27 ± 0.18 | 3.24 ± 0.25 | 3.32 ± 0.21 | 
25 | GAEVDEARINELLSSLE [RPP2B] | 3.16 ± 0.11 | 3.5 ± 0.11 | 3.22 ± 0.077 | 3.21 ± 0.1
